{"source": "patent US7884189B2", "about": "“Carboxyltransferase domain of acetyl-CoA carboxylase” (The Trustees of Columbia University in the City of new York, priority 2003, dated 2011)", "key": {"CT domain of yeast ACC": {"target": "T1, CT domain of yeast ACC (Saccharomyces cerevisiae, UniProt Q00955)", "T1 construct": "made in house; host or cells: E. coli (pET24d)", "T1 sequence (Q00955 1429-2233)": "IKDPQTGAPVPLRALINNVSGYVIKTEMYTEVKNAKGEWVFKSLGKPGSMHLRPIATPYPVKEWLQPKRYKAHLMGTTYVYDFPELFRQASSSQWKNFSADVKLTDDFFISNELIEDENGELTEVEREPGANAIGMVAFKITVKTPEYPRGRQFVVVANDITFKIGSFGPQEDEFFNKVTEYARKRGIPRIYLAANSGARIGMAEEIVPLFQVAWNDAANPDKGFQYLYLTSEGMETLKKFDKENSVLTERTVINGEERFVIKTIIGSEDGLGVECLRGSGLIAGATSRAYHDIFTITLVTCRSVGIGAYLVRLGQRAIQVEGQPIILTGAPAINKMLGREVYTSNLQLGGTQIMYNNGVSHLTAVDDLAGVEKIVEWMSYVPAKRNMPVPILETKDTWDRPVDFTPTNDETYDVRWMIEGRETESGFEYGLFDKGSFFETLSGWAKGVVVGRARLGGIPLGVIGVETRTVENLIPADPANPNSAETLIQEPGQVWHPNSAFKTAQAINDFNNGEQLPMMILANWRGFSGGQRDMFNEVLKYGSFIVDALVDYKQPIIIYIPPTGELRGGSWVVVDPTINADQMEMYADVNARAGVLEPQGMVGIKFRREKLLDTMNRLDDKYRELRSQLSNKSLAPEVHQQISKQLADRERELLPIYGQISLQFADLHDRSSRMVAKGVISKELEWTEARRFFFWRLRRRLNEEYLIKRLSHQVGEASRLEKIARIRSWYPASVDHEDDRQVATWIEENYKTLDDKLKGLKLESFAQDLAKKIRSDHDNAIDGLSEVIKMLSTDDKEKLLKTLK", "experiment": "CT domain enzyme kinetic assay, inhibition (decarboxylation of malonyl-CoA coupled to citrate synthase and malate dehydrogenase)", "type": "biochemical, S. cerevisiae", "text": "The CT domain can catalyze the decarboxylation of malonyl-CoA to produce acetyl-CoA in the presence of biotin methyl ester. Thus, the enzyme kinetic assays monitor the production of acetyl-CoA by coupling it to citrate synthase and malate dehydrogenase, which ultimately lead to the reduction of NAD^+.\nEnzyme kinetic assays. The CT domain can catalyze the decarboxylation of malonyl-CoA to produce acetyl-CoA in the presence of biotin methyl ester. The kinetic assays monitored the production of acetyl-CoA by coupling it to citrate synthase and malate dehydronase, which ultimately lead to the reduction of NAD^+ (Guchhait et al., 1974, J. Biol. Chem. 9:6633-6645)."}, "mammalian ACC2": {"system": "mammalian ACC2", "conditions": "cited from earlier work"}, "ACC": {"system": "ACC", "conditions": "cited from earlier work"}, "[1]": {"target": "T2, L1705I, V1967I and L1705I/V1967I mutants of the yeast CT domain (Saccharomyces cerevisiae, UniProt Q00955)", "T2 construct": "fused on or other part: C-terminal His-tag (pET24d)", "T2 sequence (Q00955 whole entry L1705I/V1967I, form open, the tested form may be a part)": "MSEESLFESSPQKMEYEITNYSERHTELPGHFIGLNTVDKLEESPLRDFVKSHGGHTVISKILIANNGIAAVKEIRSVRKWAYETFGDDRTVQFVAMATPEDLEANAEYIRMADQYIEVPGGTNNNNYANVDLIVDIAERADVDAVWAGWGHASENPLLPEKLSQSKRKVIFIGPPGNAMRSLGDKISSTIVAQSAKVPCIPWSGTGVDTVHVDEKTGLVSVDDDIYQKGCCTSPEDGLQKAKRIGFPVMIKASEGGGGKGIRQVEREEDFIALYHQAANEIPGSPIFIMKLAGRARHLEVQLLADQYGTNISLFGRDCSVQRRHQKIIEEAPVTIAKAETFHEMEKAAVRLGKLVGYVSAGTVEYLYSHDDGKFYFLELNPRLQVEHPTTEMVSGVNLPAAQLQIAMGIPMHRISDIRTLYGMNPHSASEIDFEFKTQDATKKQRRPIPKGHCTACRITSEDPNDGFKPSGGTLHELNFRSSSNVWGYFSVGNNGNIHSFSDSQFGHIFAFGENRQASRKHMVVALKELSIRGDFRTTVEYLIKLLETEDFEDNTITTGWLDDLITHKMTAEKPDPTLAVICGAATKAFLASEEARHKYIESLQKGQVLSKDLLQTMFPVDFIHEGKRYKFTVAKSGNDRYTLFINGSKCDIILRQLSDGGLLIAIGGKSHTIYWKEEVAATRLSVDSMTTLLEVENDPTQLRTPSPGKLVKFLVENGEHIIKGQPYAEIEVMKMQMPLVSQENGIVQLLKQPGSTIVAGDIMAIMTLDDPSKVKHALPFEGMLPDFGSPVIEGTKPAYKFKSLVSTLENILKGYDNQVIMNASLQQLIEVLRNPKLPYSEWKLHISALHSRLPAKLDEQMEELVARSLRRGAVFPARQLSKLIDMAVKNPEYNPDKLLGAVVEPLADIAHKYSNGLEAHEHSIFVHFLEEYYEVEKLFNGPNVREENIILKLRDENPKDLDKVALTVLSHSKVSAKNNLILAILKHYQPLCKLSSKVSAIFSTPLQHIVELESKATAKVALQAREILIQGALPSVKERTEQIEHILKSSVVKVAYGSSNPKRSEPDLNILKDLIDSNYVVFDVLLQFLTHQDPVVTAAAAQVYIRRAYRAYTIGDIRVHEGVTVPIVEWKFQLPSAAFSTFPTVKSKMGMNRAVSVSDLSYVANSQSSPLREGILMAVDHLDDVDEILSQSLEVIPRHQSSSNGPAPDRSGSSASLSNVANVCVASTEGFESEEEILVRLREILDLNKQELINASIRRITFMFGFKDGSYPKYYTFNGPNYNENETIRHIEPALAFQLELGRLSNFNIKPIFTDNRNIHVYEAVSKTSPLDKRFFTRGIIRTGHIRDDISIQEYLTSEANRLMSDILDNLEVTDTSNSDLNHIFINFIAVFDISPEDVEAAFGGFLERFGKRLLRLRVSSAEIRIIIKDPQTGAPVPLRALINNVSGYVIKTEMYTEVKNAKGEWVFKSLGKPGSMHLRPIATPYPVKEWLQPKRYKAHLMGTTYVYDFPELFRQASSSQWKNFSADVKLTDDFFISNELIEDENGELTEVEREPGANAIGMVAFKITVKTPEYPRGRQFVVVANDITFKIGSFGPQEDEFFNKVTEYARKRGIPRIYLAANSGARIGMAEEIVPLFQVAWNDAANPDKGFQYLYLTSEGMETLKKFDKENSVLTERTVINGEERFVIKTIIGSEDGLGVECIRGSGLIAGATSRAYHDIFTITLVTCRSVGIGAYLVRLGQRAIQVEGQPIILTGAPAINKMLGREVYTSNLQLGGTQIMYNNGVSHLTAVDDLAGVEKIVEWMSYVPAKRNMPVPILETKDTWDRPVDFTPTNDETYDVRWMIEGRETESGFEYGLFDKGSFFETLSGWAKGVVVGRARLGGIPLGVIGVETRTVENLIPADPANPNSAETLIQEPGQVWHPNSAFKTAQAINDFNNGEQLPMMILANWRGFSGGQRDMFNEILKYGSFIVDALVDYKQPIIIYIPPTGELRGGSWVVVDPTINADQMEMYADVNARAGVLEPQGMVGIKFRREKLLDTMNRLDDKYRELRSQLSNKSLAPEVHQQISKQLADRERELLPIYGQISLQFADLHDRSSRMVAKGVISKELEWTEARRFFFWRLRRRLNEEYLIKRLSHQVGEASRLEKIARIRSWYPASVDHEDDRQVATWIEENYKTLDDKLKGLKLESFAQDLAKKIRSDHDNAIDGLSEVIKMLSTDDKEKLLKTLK", "experiment": "CT domain enzyme kinetic assay, inhibition of mutant CT domains", "type": "biochemical, S. cerevisiae", "conditions": "single and double mutants; malonyl-CoA 750 μM, mutants at 20 μM", "from_the_text": "(§1) Enzyme kinetic assays. The CT domain can catalyze the decarboxylation of malonyl-CoA to produce acetyl-CoA in the presence of biotin methyl ester. The kinetic assays monitored the production of acetyl-CoA by coupling it to citrate synthase and malate dehydronase, which ultimately lead to the reduction of NAD^+ (Guchhait et al., 1974, J. Biol. Chem. […]). Mutations in the active site were designed based on the structural information. The mutants were made with the QuikChange kit (Stratagene) and sequenced for confirmation. They were purified and assayed kinetically under the same condition as the wild-type protein. The kinetic parameters for each enzyme were obtained by non-linear least-squares fitting to the initial velocity data.\nMutagenesis and kinetic assays. The L1705I and V1967I single-site mutants as well as the L1705I/V1967I double mutant were made with the QuikChange kit (Stratagene), from the expression construct that covers residues 1476-2233. The mutants were sequenced, expressed in E. coli, and purified following the same protocol as that for thewild-type CT domain. […]"}, "[2]": {"experiment": "Kinetic parameters of wild-type and mutant yeast CT (reverse reaction, malonyl-CoA to biotin methyl ester)", "type": "biochemical, S. cerevisiae", "conditions": "2.5 μM of the enzyme", "from_the_text": "as §1\nTo characterize the functional roles of the conserved residues in the active site, many of them were mutated and the kinetic parameters of the mutants for the reverse reaction, which transfers the carboxyl group of malonyl-CoA to biotin (Table D) were determined. […] Based on the structures of the invention, it is likely that this residue is important for recognizing the carboxyl group of malonyl-CoA, and this is also consistent with the hypothesis that the biotin substrate may be mostly associated with the C domain. Of the charged side chains that interact with the phosphate groups of CoA, mutation of Arg1731 gave rise to a 14-fold increase in the Km for malonyl-CoA (Table D), consistent with the structural observations. On the other hand, mutation of Arg2036 had minimal effects on the enzyme catalysis.\nMutagenesis and kinetic assays. The L1705I and V1967I single-site mutants as well as the L1705I/V1967I double mutant were made with the QuikChange kit (Stratagene), from the expression construct that covers residues 1476-2233. The mutants were sequenced, expressed in E. coli, and purified following the same protocol as that for thewild-type CT domain. The catalytic activity of the CT domain was assayed following protocols described earlier (Guchhait, R. B. et al. (1974) Acetyl coenzyme A carboxylase system from Escherichia coli. Purification and properties of the biotin carboxylase, carboxyltransferase, and carboxyl carrier protein components. J Biol Chem 249, 6633-6645; Zhang et al., 2003). […] The concentration of the malonyl-CoA substrate was kept close to the expected Km, 75 μM for the wild-type enzyme and 750 μM for the mutants. The wild-type enzyme was at 2.5 μM concentration, whereas the mutants were at 20 μM concentration."}, "[3]": {"target": "the molecule itself", "experiment": "light scattering in solution (homodimer)"}}, "note": "Where two headings read alike, the source gives them in different places."}
{"molecule": "O=C(c1c2ccccc2cc2ccccc12)N1CCC(N2CCC[C@@H](C(=O)N3CCOCC3)C2)CC1", "note": "[CP-640186]", "values": [{"measurement": "Ki", "setting": "CT domain of yeast ACC; versus malonyl-CoA, about 3 μM of enzyme in the reaction buffer, read-out: Ki", "result": "~4", "unit": "µM"}, {"measurement": "mode of inhibition", "setting": "CT domain of yeast ACC; with respect to malonyl-CoA", "result": "non-competitive"}, {"measurement": "IC50", "setting": "mammalian ACC2", "result": "~0.055", "unit": "µM"}]}
{"molecule": "CC(Oc1ccc(Oc2ncc(C(F)(F)F)cc2Cl)cc1)C(=O)SCCNC(=O)CCNC(=O)C(O)C(C)(C)COP(=O)(O)OP(=O)(O)OCC1OC(n2cnc3c(N)ncnc32)C(O)C1OP(=O)(O)O", "note": "(stereo not drawn) [CoA ester of haloxyfop]", "values": [{"measurement": "potency relative to haloxyfop", "setting": "ACC", "result": "more potent inhibitor"}]}
{"molecule": "CC(Oc1ccc(Oc2ncc(C(F)(F)F)cc2Cl)cc1)C(=O)O", "note": "(stereo not drawn) [haloxyfop]", "values": [{"measurement": "Ki", "setting": "CT domain of yeast ACC", "result": "~500", "unit": "µM"}, {"measurement": "Ki", "setting": "[1]", "result": "~500", "unit": "µM"}]}
{"molecule": "E1994Q", "values": [{"measurement": "Km", "setting": "[2]", "result": "109 ± 5", "unit": "µM"}, {"measurement": "Vmax", "setting": "[2]", "result": "272 ± 3 ×10^−5 AU/s"}]}
{"molecule": "E2026Q", "values": [{"measurement": "Km", "setting": "[2]", "result": "218 ± 24", "unit": "µM"}, {"measurement": "Vmax", "setting": "[2]", "result": "144 ± 6 ×10^−5 AU/s"}]}
{"molecule": "R1731S", "values": [{"measurement": "Km", "setting": "[2]", "result": "909 ± 72", "unit": "µM"}, {"measurement": "Vmax", "setting": "[2]", "result": "385 ± 10 ×10^−5 AU/s"}]}
{"molecule": "R1954S", "values": [{"measurement": "Km", "setting": "[2]", "result": "5100 ± 1200", "unit": "µM"}, {"measurement": "Vmax", "setting": "[2]", "result": "39 ± 6 ×10^−5 AU/s"}]}
{"molecule": "R2036E", "values": [{"measurement": "Km", "setting": "[2]", "result": "41 ± 4", "unit": "µM"}, {"measurement": "Vmax", "setting": "[2]", "result": "133 ± 3 ×10^−5 AU/s"}]}
{"molecule": "Y1738F", "values": [{"measurement": "Km", "setting": "[2]", "result": "53 ± 6", "unit": "µM"}, {"measurement": "Vmax", "setting": "[2]", "result": "152 ± 3 ×10^−5 AU/s"}]}
{"molecule": "L1705I/V1967I double mutant of the yeast CT domain (residues 1476-2233) (enzyme, also called mutated yeast CT domain; mutant CT domain; not shown: C-terminal His-tag of the parent pET24d construct) GSMHLRPIATPYPVKEWLQPKRYKAHLMGTTYVYDFPELFRQASSSQWKNFSADVKLTDDFFISNELIEDENGELTEVEREPGANAIGMVAFKITVKTPEYPRGRQFVVVANDITFKIGSFGPQEDEFFNKVTEYARKRGIPRIYLAANSGARIGMAEEIVPLFQVAWNDAANPDKGFQYLYLTSEGMETLKKFDKENSVLTERTVINGEERFVIKTIIGSEDGLGVECIRGSGLIAGATSRAYHDIFTITLVTCRSVGIGAYLVRLGQRAIQVEGQPIILTGAPAINKMLGREVYTSNLQLGGTQIMYNNGVSHLTAVDDLAGVEKIVEWMSYVPAKRNMPVPILETKDTWDRPVDFTPTNDETYDVRWMIEGRETESGFEYGLFDKGSFFETLSGWAKGVVVGRARLGGIPLGVIGVETRTVENLIPADPANPNSAETLIQEPGQVWHPNSAFKTAQAINDFNNGEQLPMMILANWRGFSGGQRDMFNEILKYGSFIVDALVDYKQPIIIYIPPTGELRGGSWVVVDPTINADQMEMYADVNARAGVLEPQGMVGIKFRREKLLDTMNRLDDKYRELRSQLSNKSLAPEVHQQISKQLADRERELLPIYGQISLQFADLHDRSSRMVAKGVISKELEWTEARRFFFWRLRRRLNEEYLIKRLSHQVGEASRLEKIARIRSWYPASVDHEDDRQVATWIEENYKTLDDKLKGLKLESFAQDLAKKIRSDHDNAIDGLSEVIKMLSTDDKEKLLKTLK", "values": [{"measurement": "binding result", "setting": "[3]", "result": "binds"}]}
{"molecule": "L1705I (protein, left off: small tags and cut ends) GSMHLRPIATPYPVKEWLQPKRYKAHLMGTTYVYDFPELFRQASSSQWKNFSADVKLTDDFFISNELIEDENGELTEVEREPGANAIGMVAFKITVKTPEYPRGRQFVVVANDITFKIGSFGPQEDEFFNKVTEYARKRGIPRIYLAANSGARIGMAEEIVPLFQVAWNDAANPDKGFQYLYLTSEGMETLKKFDKENSVLTERTVINGEERFVIKTIIGSEDGLGVECIRGSGLIAGATSRAYHDIFTITLVTCRSVGIGAYLVRLGQRAIQVEGQPIILTGAPAINKMLGREVYTSNLQLGGTQIMYNNGVSHLTAVDDLAGVEKIVEWMSYVPAKRNMPVPILETKDTWDRPVDFTPTNDETYDVRWMIEGRETESGFEYGLFDKGSFFETLSGWAKGVVVGRARLGGIPLGVIGVETRTVENLIPADPANPNSAETLIQEPGQVWHPNSAFKTAQAINDFNNGEQLPMMILANWRGFSGGQRDMFNEVLKYGSFIVDALVDYKQPIIIYIPPTGELRGGSWVVVDPTINADQMEMYADVNARAGVLEPQGMVGIKFRREKLLDTMNRLDDKYRELRSQLSNKSLAPEVHQQISKQLADRERELLPIYGQISLQFADLHDRSSRMVAKGVISKELEWTEARRFFFWRLRRRLNEEYLIKRLSHQVGEASRLEKIARIRSWYPASVDHEDDRQVATWIEENYKTLDDKLKGLKLESFAQDLAKKIRSDHDNAIDGLSEVIKMLSTDDKEKLLKTLK", "values": [{"measurement": "Km", "setting": "[2]", "result": "1340 ± 180", "unit": "µM"}, {"measurement": "Vmax", "setting": "[2]", "result": "12 ± 0.3 ×10^−5 AU/s"}]}
